Test results reported in article PMC6177200, “EpCAM ectodomain EpEX is a ligand of EGFR that counteracts EGF-mediated epithelial-mesenchymal transition through modulation of phospho-ERK1/2 in head and neck cancers” (PLoS Biology, 2018).
Several values for one entry are separate records, joined by “and”; a condition that tells them apart may be missing. Identical values can stand only once. Blank lines part the entries; values can stand above or below the binder they belong to.

Legend:
[1] = target: T1, EpEX-Fc (extracellular domain of EpCAM fused to the constant region of human immunoglobulin 1) (human), P16422; test: native gel or EMSA; purified EpEX-Fc in native versus reducing immunoblot experiments with specific antibodies; settings: remark: other sources report otherwise
T1 chain: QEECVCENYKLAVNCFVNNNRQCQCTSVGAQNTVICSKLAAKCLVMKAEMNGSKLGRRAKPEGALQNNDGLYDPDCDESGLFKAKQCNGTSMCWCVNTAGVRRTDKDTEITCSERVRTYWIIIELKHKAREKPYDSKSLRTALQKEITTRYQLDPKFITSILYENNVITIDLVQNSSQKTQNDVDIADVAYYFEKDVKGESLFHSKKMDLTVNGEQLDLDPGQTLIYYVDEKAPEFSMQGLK

[2] = target: T2, EpEX (extracellular domain of EpCAM, aa 24-265), recombinant (human), P16422; test: cross-linking; BS3 cross-linker (3.6 μg, 30 min, 37 °C); EpEX and EGF 250 pmol, EGFRex 50 pmol in 9 μl of 20 mM HEPES pH 8.0, 100 mM NaCl, 1 hr at 37 °C before; EGF added where indicated; settings: remark: other sources report otherwise
T2 chain: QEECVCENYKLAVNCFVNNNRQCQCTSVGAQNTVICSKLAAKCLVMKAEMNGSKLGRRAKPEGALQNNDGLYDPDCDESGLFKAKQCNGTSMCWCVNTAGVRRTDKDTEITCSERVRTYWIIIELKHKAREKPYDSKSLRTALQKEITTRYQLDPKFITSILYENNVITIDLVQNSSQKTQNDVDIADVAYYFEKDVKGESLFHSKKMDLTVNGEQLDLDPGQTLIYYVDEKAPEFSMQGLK

[3] = target: epidermal growth factor receptor (EGFR), endogenous full-length (human (endogenous in FaDu, Cal27, HCT8), UniProt P00533 25-1210); test: cell-based or functional assay
[4] = target: T3, EGFRex (extracellular domain of EGFR, aa 25-642) (UniProt P00533 25-642); test: cross-linking; BS3 cross-linker (3.6 μg, 30 min, 37 °C); EpEX and EGF 250 pmol, EGFRex 50 pmol in 9 μl of 20 mM HEPES pH 8.0, 100 mM NaCl, 1 hr at 37 °C before; EGF added where indicated; settings: both partners purified
T3 construct: extracellular domain of epidermal growth factor receptor, aa 25-642; source: expressed and purified as reported [118]

- stoichiometry N [1]: 2 and 3
B1: EpEX-Fc (extracellular domain of EpCAM fused to the constant region of human immunoglobulin 1), P16422 24-265 (Fc fusion)
chain: QEECVCENYKLAVNCFVNNNRQCQCTSVGAQNTVICSKLAAKCLVMKAEMNGSKLGRRAKPEGALQNNDGLYDPDCDESGLFKAKQCNGTSMCWCVNTAGVRRTDKDTEITCSERVRTYWIIIELKHKAREKPYDSKSLRTALQKEITTRYQLDPKFITSILYENNVITIDLVQNSSQKTQNDVDIADVAYYFEKDVKGESLFHSKKMDLTVNGEQLDLDPGQTLIYYVDEKAPEFSMQGLK
modifications: here or on the partner: N-glycosylated; N-glycosylated

- stoichiometry N [2]: 2
B2: EpEX (extracellular domain of EpCAM, aa 24-265), recombinant, P16422 24-265 (domain or fragment)
chain: QEECVCENYKLAVNCFVNNNRQCQCTSVGAQNTVICSKLAAKCLVMKAEMNGSKLGRRAKPEGALQNNDGLYDPDCDESGLFKAKQCNGTSMCWCVNTAGVRRTDKDTEITCSERVRTYWIIIELKHKAREKPYDSKSLRTALQKEITTRYQLDPKFITSILYENNVITIDLVQNSSQKTQNDVDIADVAYYFEKDVKGESLFHSKKMDLTVNGEQLDLDPGQTLIYYVDEKAPEFSMQGLK

- increase in cell numbers of serum-starved FaDu cells after 72 hr with high-dose EpEX (10 nM); blocked by Cetuximab [3]: 1.5 fold
- increase in cell numbers of serum-starved Kyse30 cells after 72 hr with EpEX-Fc (1 and 10 nM; low dose without significant effect); blocked by Cetuximab [3]: 2 fold
- pERK1/2 by immunofluorescence in cells treated for 30 min with EpEX-Fc (10 nM) compared to EGF (9 nM) [3]: 3 fold
B3: EpEX-Fc (extracellular domain of EpCAM fused to the constant region of human immunoglobulin 1) (Fc fusion, UniProt P16422 24-265, looked up)
chain: QEECVCENYKLAVNCFVNNNRQCQCTSVGAQNTVICSKLAAKCLVMKAEMNGSKLGRRAKPEGALQNNDGLYDPDCDESGLFKAKQCNGTSMCWCVNTAGVRRTDKDTEITCSERVRTYWIIIELKHKAREKPYDSKSLRTALQKEITTRYQLDPKFITSILYENNVITIDLVQNSSQKTQNDVDIADVAYYFEKDVKGESLFHSKKMDLTVNGEQLDLDPGQTLIYYVDEKAPEFSMQGLK
modifications: N-glycosylated

- stoichiometry N [4]: 1 EpEX per EGFRex and 2 EpEX per EGFRex
B4: EpEX (extracellular domain of EpCAM, aa 24-265), recombinant (domain or fragment, human, UniProt P16422 24-265, looked up)
chain: QEECVCENYKLAVNCFVNNNRQCQCTSVGAQNTVICSKLAAKCLVMKAEMNGSKLGRRAKPEGALQNNDGLYDPDCDESGLFKAKQCNGTSMCWCVNTAGVRRTDKDTEITCSERVRTYWIIIELKHKAREKPYDSKSLRTALQKEITTRYQLDPKFITSILYENNVITIDLVQNSSQKTQNDVDIADVAYYFEKDVKGESLFHSKKMDLTVNGEQLDLDPGQTLIYYVDEKAPEFSMQGLK
notes: extracellular domain of EpCAM, aa 24-265; also called purified recombinant EpEX; source: Sf9 insect cells, purified as described [47]
